According to the RNAGym collection of RNA variant scans (doi:10.1073/pnas.2313332121):

B1: TPR t1 (parent)
chain: GACCAAUCUGCCCUCAGAGCUCGAGAACAUCUUCGGAUGCAGAGGAGGCAGGCUUCGGUGGCGCGAUAGCGCCAACGUCCUCAACCUCCAAUGCAUCCCACCACAUGAUGAUGCCUGAAGAGCCUUGGUUUUUUG

Variants of: B1
Test: polymerase ribozyme fitness, log enrichment relative to wild type (log ratio); higher = more active; in vitro selection for triplet polymerase activity
In short: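 Mutant libraries of both subunits of a heterodimeric triplet polymerase ribozyme were PCR-built, transcribed, and selected once in triplicate, with frozen incubation at −7 °C and capture of gel-excised extended constructs on streptavidin beads before RT-PCR. Illumina sequencing of input and output libraries was filtered to genotypes with ≥10 input reads and ≥1 read per output. Fitness is the logarithm of genotype enrichment over wild-type enrichment, using inverse-variance-weighted replicate averages. The logarithm is base 2.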

Row | Variant | polymerase ribozyme fitness (log ratio)
1 | C64G C98U | -6.14
2 | G63A U116C | -0.908
3 | G63U C123A | -0.845
4 | A68G G69C C82U G113A G128U | -4.89
5 | G63C G117U G120A | -2.53
6 | C64G A84U U112A | -6.14
7 | G63C U116A C123U | -1.91
8 | G65C C123G | -3.83
9 | G63C C94A | -1.52
10 | G63A C80A | -4.42
11 | G69A C82G | -3.32
12 | A66U G93C C114G | -5.41
13 | C64U G127C | -1.82
14 | G69A U132C | -2.86
15 | G63U U92A | -5.39
16 | A66G C72A C79A A84U | -4.61
17 | A66C A91U | -4.65
18 | A66C G113C | -3.98
19 | G63C C89U | -1.31
20 | C64A A121C | -4.57
21 | C64A C88G | -6.08

Row | Variant | polymerase ribozyme fitness (log ratio)
22 | G69A C102A U112G U132A | -5.6
23 | C64U C82U A95G | -0.455
24 | G69U U129G | -1.02
25 | G69A C79A | -3.99
26 | C64U G135U | -0.52
27 | G69C A118G | -1.23
28 | C64U A66U C124A | 1.13
29 | G69U C76U G93C U132C | -2.06
30 | G69U U81A | 0.151
31 | G63A U78C A83G C88G | -3
32 | G69U C79G U109G | -2.86
33 | G63U A84U C86A G128U U130C | -3.81
34 | C64U C114U | -1.47
35 | C64U C114A | -1.4
36 | G69U C88A A90U | 0.178
37 | A68G C73U | -2.42
38 | G69U C89G U106A G120C G122C | -1.79
39 | G69C G120U C123G | -0.319
40 | C64U C94A | -0.615
41 | G63C G117C A119U | -4.1
42 | A66U C73U A83U A100U C123U U125G | -2.19

Row | Variant | polymerase ribozyme fitness (log ratio)
43 | G69U C72U G117A | -0.708
44 | G69C U78C A84C | -2.73
45 | G69U C73G A105U | -4.07
46 | G63C G93U | -1.7
47 | C64A A66C U109C | -6.74
48 | G63A G110C C115G G120U | -7.28
49 | C64U C115A U125A | -0.872
50 | G63A U109C | -2.75
51 | C64A C79U C102A A119G | -7.09
52 | G63U C85U U130A | -2.02
53 | C70A A84U U87A | -2.24
54 | A66U A84U G110C U130C | -5.62
55 | G63U C124U | 0.0528
56 | C64U A103G | -4.77
57 | G69A C123G | -0.288
58 | G69A C123A | -1.81
59 | G69A C123U | -0.983
60 | G63C G128C | -3.04
61 | G63C C70U A90G | 0.0962
62 | G63C U92A U132A | -3.33
63 | G69U C114A | -0.78

Row | Variant | polymerase ribozyme fitness (log ratio)
64 | G69U G127A U131A | -2.75
65 | G69U C70A | -1.51
66 | G69U C70U | -0.561
67 | G69C U106A G120U G128U | -2.78
68 | A66G G127U | -1.49
69 | G69U C85G C99U A100C G110A | -5.56
70 | G69U G117A | -0.296
71 | G63C C80U | -2.4
72 | C64U A118U | 0.459
73 | G63U A84C U130A | -2.23
74 | C64A C82G A121C | -7.17
75 | A66C G69A C123U U126A | -4.63
76 | G63U G120A | -0.542
77 | A66U C94A | -2.12
78 | G63A U126G U130G | -4.43
79 | G63U U78G | -3.12
80 | C64U A111U | -3.24
81 | C64U A111C | 0.336
82 | G63C U92A | -4.04
83 | A66G C79G G120A | -3.49
